# No end group written: not given here.
# B1: BLA (enzyme)
# chain: TPVSEKQLAEVVANTITPLMKAQSVPGMAVAVIYQGKPHYYTFGKADIAANKPVTPQTLFELGSISKTFTGVLGGDAIARGEISLDDAVTRYWPQLTGKQWQGIRMLDLATYTAGGLPLQVPDEVTDNASLLRFYQNWQPQWKPGTTRLYANASIGLFGALAVKPSGMPYEQAMTTRVLKPLKLDHTWINVPKAEEAHYAWGYRDGKAVRVSPGMLDAQAYGVKTNVQDMANWVMANMAPENVADASLKQGIALAQSRYWRIGSMYQGLGWEMLNWPVEANTVVEGSDSKVALAPLPVAEVNPPAPPVKASWVHKTGSTGGFGSYVAFIPEKQIGIVMLANTSYPNPARVEAAYHILEALQHHHHHH
# notes: also called pCB04; pCB04 (WT)
# B2: CK37283 (peptide)
# peptide: ACNLWPHFWCGGG
# modifications: Probably cyclised by a Cys2-Cys10 disulfide, since it comes from the C7C constrained library. The patent does not say this for the synthetic peptide.
# notes: Synthetic peptide from the phage panning
# B3: BBI-VEGF1 (designed binder)
# chain: DDESSKPCCDQCACYNLYGWTCRCSDMRLNSCHSACKSCICALSYPAQCFCVDITDFCYEPCKPSEDDKEN
# notes: also called anti-VEGF BBI
# Columns and labels:
# [1] = target: BSA (UniProt P02769 25-607); assay: phage ELISA, detected with anti-M13-HRP and ABTS, A405 after 30 min, n=3
# BSA, sequence (P02769 25-607 limits assumed): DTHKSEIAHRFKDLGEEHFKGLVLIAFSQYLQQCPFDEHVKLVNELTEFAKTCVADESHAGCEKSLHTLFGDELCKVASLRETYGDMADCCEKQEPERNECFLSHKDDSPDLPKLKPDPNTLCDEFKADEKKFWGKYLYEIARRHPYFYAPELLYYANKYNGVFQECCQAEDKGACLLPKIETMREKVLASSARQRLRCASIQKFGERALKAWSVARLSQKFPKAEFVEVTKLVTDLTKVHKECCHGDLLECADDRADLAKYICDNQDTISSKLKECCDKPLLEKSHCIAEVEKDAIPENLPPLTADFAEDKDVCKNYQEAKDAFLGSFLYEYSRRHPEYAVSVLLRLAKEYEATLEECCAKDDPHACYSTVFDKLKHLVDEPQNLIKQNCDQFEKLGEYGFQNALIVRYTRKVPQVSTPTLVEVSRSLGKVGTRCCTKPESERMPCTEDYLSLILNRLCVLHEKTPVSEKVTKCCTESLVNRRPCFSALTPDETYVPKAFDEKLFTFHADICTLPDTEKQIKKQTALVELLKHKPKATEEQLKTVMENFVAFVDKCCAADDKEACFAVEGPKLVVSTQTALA
# [2] = target: T1, human VEGF165 (human, UniProt P15692-4 27-191); assay: plate binding assay: hVEGF165-coated wells, bound beta-lactamase activity measured with nitrocefin (mOD/min)
# T1 construct: Bought recombinant protein; Coated on plates (ELISA), amine-coupled to a CM5 chip (SPR) or added to HUVE cells at 10 ng/mL; also called hVEGF165; vascular endothelial growth factor
# T1 sequence (P15692 other isoform, or with tags, fused parts or gaps limits assumed): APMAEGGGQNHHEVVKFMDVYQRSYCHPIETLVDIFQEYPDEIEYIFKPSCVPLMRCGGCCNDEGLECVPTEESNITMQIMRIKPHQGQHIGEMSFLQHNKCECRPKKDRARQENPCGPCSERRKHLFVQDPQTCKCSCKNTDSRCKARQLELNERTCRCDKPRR
# [3] = target: T1, human VEGF165; assay: SPR (BIAcore 3000), VEGF165 coupled to CM5 chip, peptide injected; two state reaction model with conformation change
# [4] = target: T1, human VEGF165; assay: SPR (BIAcore 3000), 6000 RU VEGF on CM5 chip, TNF reference lane, peptide injected; two state reaction model with conformation change
# [5] = target: T1, human VEGF165; assay: surface plasmon resonance (BIAcore), hVEGF165 coupled to a CM5 chip, BBI-VEGF injected
binder,measurement,setting,value
ACNLWPHFWCGGG [SEQ ID NO 3],binding result,[1],no binding
ACTLWPTFWCGGG [SEQ ID NO 2],binding result,[1],no binding
ACSLWPAFWCGGG [SEQ ID NO 4],binding result,[1],no binding
B1,binding result,[2],no binding (tested: about 40 µM)
"ACYNLYGWTCGGG (cysteine pairing not given here; also: biotinylated, site not given here, Synthetic peptide (FMOC, SynPep)) [biotinylated peptide CK37281]",Kd,[3],1.92 µM
same,koff,[3],0.0122 s⁻¹
same,kon,[3],2840 M⁻¹ s⁻¹
ACTLWPSYWCGGG [SEQ ID NO 7],binding result,[1],no binding
B2,Kd,[4],4.9 µM
same,koff,[4],0.318 s⁻¹
same,kon,[4],12400 M⁻¹ s⁻¹
B3,binding result,[5],binds
ACYNLYGWTCGGG [SEQ ID NO 1],binding result,[1],no binding
